Test results: PMC8976148, “Long-range structural preformation in yes-associated protein precedes encounter complex formation with TEAD” (iScience, 2022)

Target: T1, Biotinylated N-Avitagged-TEAD4^217-434 (UniProt Q15561 217-434, biotin (biotinylated Avitag))
T1 construct: TEAD4, residues 217-434; not shown: Avitag, N-terminal, kept
Assay: FRET or BRET; TR-FRET competition: biotinylated N-Avitagged TEAD4 217-434 (1 nM) on LANCE Eu-W1024 streptavidin (0.5 nM), Cy5-labelled YAP as tracer, serial dilutions of the YAP proteins; 50 mM HEPES pH 7.4, 100 mM KCl, 0.05% Tween-20, 0.25 mM TCEP, 0.05% BSA, 2% DMSO; 1 h at room temperature
Conditions: both partners purified

T1 sequence (Q15561 217-434): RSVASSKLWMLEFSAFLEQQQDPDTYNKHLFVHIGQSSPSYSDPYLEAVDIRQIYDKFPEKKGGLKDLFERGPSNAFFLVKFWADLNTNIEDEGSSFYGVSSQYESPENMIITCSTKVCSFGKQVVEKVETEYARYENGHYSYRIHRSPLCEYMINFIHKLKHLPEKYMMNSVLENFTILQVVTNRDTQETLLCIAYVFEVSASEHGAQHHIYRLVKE

| Binder | binding result |
| --- | --- |
| YAP^50-171 (domain or fragment, UniProt P46937 50-171, looked up, YAP (Yes-associated protein), residues 50-171; 15N-labelled in the intermolecular PRE control; also called YAP^wt; Yes-associated protein; source: E. coli Tuner(DE3), purified (HisTrap FF, 3C protease cleavage, heating to 90°C, size exclusion); not shown: His6, N-terminal, cleaved) AGHQIVHVRGDSETDLEALFNAVMNPKTANVPQTVPMRLRKLPDSFFKPPEPKSHSRQASTDAGTAGALTPQHVRAHSSPASLQLGAVSPGTLTPTGVVSGPAATPTAQHLRQSSFEIPDDV | binds |
| YAP^50-171 S127C (domain or fragment, UniProt P46937 50-171, looked up, YAP (Yes-associated protein), residues 50-171; source: E. coli Tuner(DE3), purified (HisTrap FF, 3C protease cleavage, heating to 90°C, size exclusion; buffers with 1 mM DTT); not shown: His6, N-terminal, cleaved) AGHQIVHVRGDSETDLEALFNAVMNPKTANVPQTVPMRLRKLPDSFFKPPEPKSHSRQASTDAGTAGALTPQHVRAHCSPASLQLGAVSPGTLTPTGVVSGPAATPTAQHLRQSSFEIPDDV | binds |
| YAP^50-171 S138C (domain or fragment, UniProt P46937 50-171, looked up, YAP (Yes-associated protein), residues 50-171; source: E. coli Tuner(DE3), purified (HisTrap FF, 3C protease cleavage, heating to 90°C, size exclusion; buffers with 1 mM DTT); not shown: His6, N-terminal, cleaved) AGHQIVHVRGDSETDLEALFNAVMNPKTANVPQTVPMRLRKLPDSFFKPPEPKSHSRQASTDAGTAGALTPQHVRAHSSPASLQLGAVCPGTLTPTGVVSGPAATPTAQHLRQSSFEIPDDV | binds |
| YAP^50-171 V80C (domain or fragment, UniProt P46937 50-171, looked up, YAP (Yes-associated protein), residues 50-171; source: E. coli Tuner(DE3), purified (HisTrap FF, 3C protease cleavage, heating to 90°C, size exclusion; buffers with 1 mM DTT); not shown: His6, N-terminal, cleaved) AGHQIVHVRGDSETDLEALFNAVMNPKTANCPQTVPMRLRKLPDSFFKPPEPKSHSRQASTDAGTAGALTPQHVRAHSSPASLQLGAVSPGTLTPTGVVSGPAATPTAQHLRQSSFEIPDDV | binds |
| YAP^50-171 D60C (domain or fragment, UniProt P46937 50-171, looked up, YAP (Yes-associated protein), residues 50-171; source: E. coli Tuner(DE3), purified (HisTrap FF, 3C protease cleavage, heating to 90°C, size exclusion; buffers with 1 mM DTT); not shown: His6, N-terminal, cleaved) AGHQIVHVRGCSETDLEALFNAVMNPKTANVPQTVPMRLRKLPDSFFKPPEPKSHSRQASTDAGTAGALTPQHVRAHSSPASLQLGAVSPGTLTPTGVVSGPAATPTAQHLRQSSFEIPDDV | binds |

Results, then the binder that gave them:

| binding result | Binder |
| --- | --- |
| binds | YAP^50-171 K90C (domain or fragment, UniProt P46937 50-171, looked up, YAP (Yes-associated protein), residues 50-171; source: E. coli Tuner(DE3), purified (HisTrap FF, 3C protease cleavage, heating to 90°C, size exclusion; buffers with 1 mM DTT); not shown: His6, N-terminal, cleaved) AGHQIVHVRGDSETDLEALFNAVMNPKTANVPQTVPMRLRCLPDSFFKPPEPKSHSRQASTDAGTAGALTPQHVRAHSSPASLQLGAVSPGTLTPTGVVSGPAATPTAQHLRQSSFEIPDDV |
| binds | YAP^50-171 S103C (domain or fragment, UniProt P46937 50-171, looked up, YAP (Yes-associated protein), residues 50-171; source: E. coli Tuner(DE3), purified (HisTrap FF, 3C protease cleavage, heating to 90°C, size exclusion; buffers with 1 mM DTT); not shown: His6, N-terminal, cleaved) AGHQIVHVRGDSETDLEALFNAVMNPKTANVPQTVPMRLRKLPDSFFKPPEPKCHSRQASTDAGTAGALTPQHVRAHSSPASLQLGAVSPGTLTPTGVVSGPAATPTAQHLRQSSFEIPDDV |
| binds | YAP^50-171 S149C (domain or fragment, UniProt P46937 50-171, looked up, YAP (Yes-associated protein), residues 50-171; source: E. coli Tuner(DE3), purified (HisTrap FF, 3C protease cleavage, heating to 90°C, size exclusion; buffers with 1 mM DTT); not shown: His6, N-terminal, cleaved) AGHQIVHVRGDSETDLEALFNAVMNPKTANVPQTVPMRLRKLPDSFFKPPEPKSHSRQASTDAGTAGALTPQHVRAHSSPASLQLGAVSPGTLTPTGVVCGPAATPTAQHLRQSSFEIPDDV |
| binds | YAP^50-171 T119C (domain or fragment, UniProt P46937 50-171, looked up, YAP (Yes-associated protein), residues 50-171; source: E. coli Tuner(DE3), purified (HisTrap FF, 3C protease cleavage, heating to 90°C, size exclusion; buffers with 1 mM DTT); not shown: His6, N-terminal, cleaved) AGHQIVHVRGDSETDLEALFNAVMNPKTANVPQTVPMRLRKLPDSFFKPPEPKSHSRQASTDAGTAGALCPQHVRAHSSPASLQLGAVSPGTLTPTGVVSGPAATPTAQHLRQSSFEIPDDV |
| binds | YAP^50-171 A71C (domain or fragment, UniProt P46937 50-171, looked up, YAP (Yes-associated protein), residues 50-171; source: E. coli Tuner(DE3), purified (HisTrap FF, 3C protease cleavage, heating to 90°C, size exclusion; buffers with 1 mM DTT); not shown: His6, N-terminal, cleaved) AGHQIVHVRGDSETDLEALFNCVMNPKTANVPQTVPMRLRKLPDSFFKPPEPKSHSRQASTDAGTAGALTPQHVRAHSSPASLQLGAVSPGTLTPTGVVSGPAATPTAQHLRQSSFEIPDDV |
| binds | YAP^50-171 Q158C (domain or fragment, UniProt P46937 50-171, looked up, YAP (Yes-associated protein), residues 50-171; source: E. coli Tuner(DE3), purified (HisTrap FF, 3C protease cleavage, heating to 90°C, size exclusion; buffers with 1 mM DTT); not shown: His6, N-terminal, cleaved) AGHQIVHVRGDSETDLEALFNAVMNPKTANVPQTVPMRLRKLPDSFFKPPEPKSHSRQASTDAGTAGALTPQHVRAHSSPASLQLGAVSPGTLTPTGVVSGPAATPTACHLRQSSFEIPDDV |
| binds | YAP^50-171 S164C (domain or fragment, UniProt P46937 50-171, looked up, YAP (Yes-associated protein), residues 50-171; source: E. coli Tuner(DE3), purified (HisTrap FF, 3C protease cleavage, heating to 90°C, size exclusion; buffers with 1 mM DTT); not shown: His6, N-terminal, cleaved) AGHQIVHVRGDSETDLEALFNAVMNPKTANVPQTVPMRLRKLPDSFFKPPEPKSHSRQASTDAGTAGALTPQHVRAHSSPASLQLGAVSPGTLTPTGVVSGPAATPTAQHLRQSCFEIPDDV |
